This is an account of results in publication PMC7673798 (Science Advances, 2020).

This data set concerns the molecule itself. Nature of the data set: cryo-EM structure.

B1: OpuA polypeptide with the nucleotide-binding domain (NBD) fused to a tandem CBS domain, E190Q (natural protein, Lactococcus lactis, UniProt Q9KIF7 1-408, looked up)
chain: MPVKIKIEHLTKIFGKRIKTALTMVEKGEPKNEILKKTGATVGVYDTNFEINEGEIFVIMGLSGSGKSTLLRLLNRLIEPTSGKIFIDNQDVATLNKEDLLQVRRKTMSMVFQNFGLFPHRTILENTEYGLEVQNVPKEERRKRAEKALDNANLLDFKDQYPKQLSGGMQQRVGLARALANDPEILLMDQAFSALDPLIRREMQDELLELQAKFQKTIIFVSHDLNEALRIGDRIAIMKDGKIMQIGTGEEILTNPANDYVKTFVEDVDRAKVITAENIMIPALTTNIDVDGPSVALKKMKTEEVSSLMAVDKKRQFRGVVTSEQAIAARKNNQPLKDVMTTDVGTVSKEMLVRDILPIIYDAPTPLAVVDDNGFLKGVLIRGSVLEALADIPDEDEVEEIEKEEENK
Turning to B1, the binding result was “binds”.
